The text below walks through data of publication PMC3581732 (Molecular microbiology, 2013).

The data set deals with the molecule itself. Description: cross-linking.

B1: TolC Y362F/R367E (YFRE^His), leaky/open mutant with a C-terminal 6His-tag (natural protein)
chain: ENLMQVYQQARLSNPELRKSAADRDAAFEKINEARSPLLPQLGLGADYTYSNGYRDANGINSNATSASLQLTQSIFDMSKWRALTLQEKAAGIQDVTYQTDQQTLILNTATAYFNVLNAIDVLSYTQAQKEAIYRQLDQTTQRFNVGLVAITDVQNARAQYDTVLANEVTARNNLDNAVEQLRQITGNYYPELAALNVENFKTDKPQPVNALLKEAEKRNLSLLQARLSQDLAREQIRQAQDGHLPTLDLTASTGISDTSYSGSKTRGAAGTQYDDSNMGQNKVGLSFSLPIYQGGMVNSQVKQAQYNFVGASEQLESAHRSVVQTVRSSFNNINASISSINAYKQAVVSAQSSLDAMEAGFSVGTETIVDVLDATTTLYNAKQELANARYNYLINQLNIKSALGTLNEQDLLALNNALSKPVSTNPENVAPQTPEQNAIADGYAPDSPAPVVQQTSARTTTSNGHNPFRN
With B1, the “stoichiometry N” value is 3.

By stoichiometry N is commonly meant the number of molecules, sites or subunits per partner or assembly.
